{"source": "paper PMC7237134", "test_in_all_cases": "fluorescence anisotropy", "key": {"Sgd1 MA3-Cterm": {"molecular_target": "T1, Sgd1 MA3-Cterm (Saccharomyces cerevisiae, UniProt Q06132 645-899)", "T1 sequence": "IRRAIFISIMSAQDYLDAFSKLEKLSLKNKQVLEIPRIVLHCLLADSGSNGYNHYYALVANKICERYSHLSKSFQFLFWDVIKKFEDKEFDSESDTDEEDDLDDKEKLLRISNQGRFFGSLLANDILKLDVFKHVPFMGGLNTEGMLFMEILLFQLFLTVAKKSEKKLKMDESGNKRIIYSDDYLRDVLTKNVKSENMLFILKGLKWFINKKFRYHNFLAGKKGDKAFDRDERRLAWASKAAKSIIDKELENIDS"}, "[1]": {"molecular_target": "T2, Sgd1 MIF4G-Cterm (MIF4G, MA3 and C-terminal region) (Saccharomyces cerevisiae, UniProt Q06132 330-899)", "T2 sequence": "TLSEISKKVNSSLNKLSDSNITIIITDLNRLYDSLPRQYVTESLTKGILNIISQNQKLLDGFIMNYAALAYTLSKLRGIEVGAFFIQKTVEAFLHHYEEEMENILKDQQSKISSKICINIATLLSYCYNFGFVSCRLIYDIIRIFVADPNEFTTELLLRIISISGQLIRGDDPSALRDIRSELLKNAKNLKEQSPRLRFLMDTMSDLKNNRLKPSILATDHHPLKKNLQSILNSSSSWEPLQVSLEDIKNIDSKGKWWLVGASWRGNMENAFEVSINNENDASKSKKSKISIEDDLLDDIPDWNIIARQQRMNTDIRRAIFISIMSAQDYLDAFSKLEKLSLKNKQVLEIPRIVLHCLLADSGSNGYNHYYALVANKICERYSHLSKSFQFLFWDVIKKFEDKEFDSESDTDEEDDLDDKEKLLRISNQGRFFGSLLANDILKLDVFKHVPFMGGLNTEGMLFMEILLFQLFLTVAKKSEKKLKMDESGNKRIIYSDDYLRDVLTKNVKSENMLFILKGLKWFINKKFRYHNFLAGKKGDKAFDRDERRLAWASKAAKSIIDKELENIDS"}, "Sgd1 Nterm-MIF4G": {"molecular_target": "T3, Sgd1 Nterm-MIF4G (Saccharomyces cerevisiae, UniProt Q06132 1-541)", "T3 sequence": "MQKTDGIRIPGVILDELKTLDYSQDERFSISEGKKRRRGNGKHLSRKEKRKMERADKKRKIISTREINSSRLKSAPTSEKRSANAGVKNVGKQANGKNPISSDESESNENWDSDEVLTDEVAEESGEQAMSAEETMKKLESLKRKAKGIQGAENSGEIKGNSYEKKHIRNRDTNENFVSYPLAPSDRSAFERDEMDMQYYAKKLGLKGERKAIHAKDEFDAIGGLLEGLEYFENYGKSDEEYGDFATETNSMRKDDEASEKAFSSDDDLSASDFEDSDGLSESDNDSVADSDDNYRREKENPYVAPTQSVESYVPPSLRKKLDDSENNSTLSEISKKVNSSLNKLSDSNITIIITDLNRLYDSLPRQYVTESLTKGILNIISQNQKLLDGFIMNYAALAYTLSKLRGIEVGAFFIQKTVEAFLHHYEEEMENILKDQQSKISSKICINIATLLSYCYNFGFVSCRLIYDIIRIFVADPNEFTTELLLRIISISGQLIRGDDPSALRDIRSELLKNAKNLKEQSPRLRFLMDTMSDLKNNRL"}}}
{"binder": "GUAAUGAAAGU (ssRNA)", "note": "[11 nt Atto647-labelled RNA]", "values": [{"measurement": "binding result", "setting": "Sgd1 MA3-Cterm", "value": "binds"}, {"measurement": "binding result", "setting": "[1]", "value": "binds"}, {"measurement": "binding result", "setting": "Sgd1 Nterm-MIF4G", "value": "no binding"}]}
